Earlier results as cited in article PMC7103376.

Target: 3CLpro (SARS coronavirus) (UniProt P0C6X7)

In the case of 3CLpro (from UniProt P0C6X7), the Kd is given as under 100 nM.
